Results on 1 protein are retold here after patent publication US20080044422A1 (Janssen / Centocor, published 2008).

The data set deals with the molecule itself. Nature of the data set: SELDI mass spectrometry of the purified protein alone, non-reduced sample (self-association). As to the method:
Recombinantly expressed proteins were analyzed by SDS-PAGE, anti-myc western blot, MALDI-MS, and SEC HPLC. In addition, O-linked glycosylation was analyzed by first treating the proteins with O-glycosidase with and without sialidase. The released O-glycans were labeled with anthranilic acid and analyzed by HPLC. The truncated CNGH0010.2 protein containing exons 1-5, 8, 9, 12, and 13 (SEQ ID NO:41) is predicted to be 37.5 kDa. […] In addition, it appears as if the molecule has a propensity to multimerize, as non-reduced analysis by SDS-PAGE, SELDI-MS (FIG. 5), and SEC-HPLC (FIG. 6), all indicate that dimeric and trimeric forms of the truncated CNGH0010.2 molecule exist in solution.

B1: truncated CNGH0010.2 protein containing exons 1-5, 8, 9, 12, and 13 (other)
chain: GPLQSGEESTGTNIGEALGHGLGDALSEGVGKAIGKEAGGAAGSKVSEALGQGTREAVGTGVRQVPGFGAADALGNRVGEAAHALGNTGHEIGRQAEDVIRHGADAVRGSWQGVPGHNGAWETSGGHGIFGSQGGLGGQGQGNPGGLGTPWVHGYPGNSAGSFGMNPQGAPWGQGGNGGPPNFGTNTQGAVAQPGYGSVRASNQNEGCTNPPPSGSGGGSSNSGGGSGSQSGSSGSGSNGDNNNGSSSGGSSSGSSSGGSSGGSSGGSSGNSGGSRGDSGSESSWGSSTGSSSGNHGGSGGGDGHKPGCEKPGNEARGSGESGIQGQGSSWGSGGGDAVGGVNTVNSETS
modifications: O-linked oligosaccharides (sites not given)
notes: The signal peptide (probably residues 1-21, same exon 1) is cleaved in the secreted protein; also called CNGH0010 (exons 1-13); His tagged CNGH0010.2 fusion protein; not shown: C-terminal hexa-His (myc-His vector) tag
On to B1, for which the binding result was “binds”.
